The source of these data is publication PMC8514121 (Science signaling, 2020).

Where a chain is given by its changes, count along the chain named. Names and notes keep the numbering of the source.

The target in series [1] is T1, Aurora A kinase domain (residues 116 to 389) (human, UniProt O14965 116-389).
T1 sequence (looked up): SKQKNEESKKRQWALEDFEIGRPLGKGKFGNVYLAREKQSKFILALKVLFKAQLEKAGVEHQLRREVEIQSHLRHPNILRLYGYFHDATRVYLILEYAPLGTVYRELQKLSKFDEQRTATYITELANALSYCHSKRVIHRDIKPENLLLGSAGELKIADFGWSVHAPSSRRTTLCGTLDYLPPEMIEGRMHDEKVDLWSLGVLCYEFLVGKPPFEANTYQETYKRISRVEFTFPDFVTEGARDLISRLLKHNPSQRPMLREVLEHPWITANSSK
Kind of series: crystal structure.

The series “crystal structure” deals with the molecule itself. Nature of the series: crystal structure.
The series “cross-linking” concerns the molecule itself. Kind of series: cross-linking.

Take SYSYDAPSDFINFS (domain or fragment, UniProt Q9ULW0 7-20, looked up) [TPX2 fragment (residues 7 to 20)]: the binding result in series [1] is on record as “binds”.

B1: CoAlated unphosphorylated C247V + C319V t-Aurora A (domain or fragment, UniProt Q9ULW0 7-20, looked up)
chain: SYSYDAPSDFINFSSKQKNEESKKRQWALEDFEIGRPLGKGKFGNVYLAREKQSKFILALKVLFKAQLEKAGVEHQLRREVEIQSHLRHPNILRLYGYFHDATRVYLILEYAPLGTVYRELQKLSKFDEQRTATYITELANALSYVHSKRVIHRDIKPENLLLGSAGELKIADFGWSVHAPSSRRTTLCGTLDYLPPEMIEGRMHDEKVDLWSLGVLVYEFLVGKPPFEANTYQETYKRISRVEFTFPDFVTEGARDLISRLLKHNPSQRPMLREVLEHPWITANSSK
modifications: coenzyme A disulfide adduct (CoAlation) on Cys290 on approximately two thirds of the protein; unphosphorylated
On to B1, for which the binding result in the series “crystal structure” is given as “binds”.

B2: t-Aurora A C247V + D256N + C319V kinase-dead mutant (Cys290-Cys290 disulfide homodimer) (domain or fragment, UniProt Q9ULW0 7-20, looked up)
chain: B1 chain with D155N
modifications: disulfide bond between Cys290 of the two monomers
With B2, in “crystal structure”, the binding result is recorded as “binds”.

B3: t-Aurora A C247V + C319V double mutant, unphosphorylated, catalytically active (used for the disulfide homodimer) (domain or fragment, UniProt Q9ULW0 7-20, looked up)
chain: B1 chain
Regarding B3, in “cross-linking”, the binding result is listed as “binds”.
